Experimental data published in patent US11046981B2, “Host cell modified to produce lactams” (The Regents of the University of California, priority 2016, dated 2021).

How the values were obtained:
ORF27 [1] = biological target: T1, ORF27 (Streptomyces aizunensis, UniProt Q52V65); assay: ATP-PPi release assay for ORF27 (substrate range, steady state parameters); format: biochemical; conditions: substrates with a negatively charged group on the ω-terminal end
T1 sequence (Q52V65 1-470): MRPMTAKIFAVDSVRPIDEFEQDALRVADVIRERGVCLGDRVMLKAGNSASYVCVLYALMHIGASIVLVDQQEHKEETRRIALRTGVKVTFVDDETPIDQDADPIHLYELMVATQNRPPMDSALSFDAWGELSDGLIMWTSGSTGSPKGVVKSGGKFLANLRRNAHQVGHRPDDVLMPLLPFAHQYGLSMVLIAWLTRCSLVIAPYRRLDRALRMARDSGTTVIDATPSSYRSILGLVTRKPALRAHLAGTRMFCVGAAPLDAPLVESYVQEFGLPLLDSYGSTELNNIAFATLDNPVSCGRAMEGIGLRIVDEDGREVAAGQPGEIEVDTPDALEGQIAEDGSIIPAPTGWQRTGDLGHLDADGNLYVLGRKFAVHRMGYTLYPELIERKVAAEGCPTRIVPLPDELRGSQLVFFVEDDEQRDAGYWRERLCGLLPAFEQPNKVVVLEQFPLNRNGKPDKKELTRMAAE
Protocol: The substrate range of ORF27 was determined by ATP-PPi release assays as previously described (12). Without prior knowledge about the reaction pathways, the ATP-PPi assay served a semi-quantitative method to compare substrate induced acceleration of ATP consumption. For kinetic investigation of ORF27 activity with different substrates, the inorganic pyrophosphate released by enzymatic reaction was measured continuously using the EnzChek Pyrophosphate Assay Kit (Invitrogen). A typical assay contained in a total volume of 150 μL: 5 μM of ORF27, 0-20 mM substrates, 1 mM ATP, 1 mM CoASH and 1 mM Mg(Cl)2 in 100 mM HEPES, pH 7.5. 2-amino-6-mercapto-7-methylpurine ribonucleoside (MESG) substrate, purine nucleoside phosphorylase and inorganic pyrophosphatase were added according to the protocol. Reactions were initiated by the addition of ATP and monitored at 360 nm with SpectraMax M2 (Molecular Devices, Sunnyvale, Calif.). Initial velocities were calculated using the standard curve for inorganic pyrophosphate. For each concentration, control reactions were carried out without enzyme or without ATP. The rates of PPi release were converted to observed rates, and the Michaelis-Menten kinetic parameters were obtained. […]
The sensitivity of the ATP-PPi release assay (5 μM Pi) allowed the initial velocity to be determined within the first 2 min of reaction incubation. […]

[2] = Solubility noted during preparation of substrate stock solution; format: physicochemical; conditions: under neutral pH; HCl added to obtain 100 mM stock solution in pH ~2.0
Source text: (§1) The acids assayed were glutamic acid, γ-aminobutyrate (GABA), 4-guanidinobutyric acid, (S)-3-hydroxyl-butyric acid, valeric acid, 4-methyl-hexanoic acid, 3-aminobutyric acid, 6-aminocaproic acid, 6-guanidinohexanoic acid, glutaric acid, adipic acid, 2-aminobutyric acid and (Sigma-Aldrich, St. Louis, Mo.).

ORF27 [3] = biological target: T1, ORF27; assay: In vitro ORF27 lactam formation with ATP or ADP, product analysis by HPLC-MS; format: biochemical; conditions: ADP instead of ATP to activate ω-amino fatty acids
Protocol: (§2) To compare formation of various lactams by ORF27, a reaction mixture containing […] of ORF27, 5 mM ω-amino fatty acids substrates, 1 mM ATP or ADP, 0.5 mM CoASH and 1 mM Mg(CI)2 in 100 mM HEPES (pH=8) was incubated at 25° C. The reactions were quenched by addition of methanol to a final concentration of 50% (v/v) at multiple time points (0 min, 15 min, 1 h, 2 h, 4 h and 19 h). The resulting quenched reactions were kept at 4° C. and filtered through 10 K Amicon Ultra-0.5 mL Centrifugal Filters (Millipore) at 8000×g for 30 min. The filtered solutions were analyzed for lactams and nucleotides using HPLC-MS. Control reactions were carried out without enzyme, without substrate, without ATP, without CoASH or without MgCl2 (supplying additional 0.2 mM EDTA to chelate Mg^2+ ions from purified protein stock). Caprolactam, valerolactam and butyrolactam, AMP, ADP and ATP were purchased as standards from Sigma-Aldrich. The pH dependence of ORF27-catalyzed butrylactam formation was determined using an end-point assay, and the amount of butyrolactam was determined using the HPLC-MS method described above.
The ORF27-catalyzed lactam formation reaction in vitro was monitored for both nucleotide and lactam products, using either ATP or ADP as the energy source. […] In the absence of ORF27, ATP remained stable throughout the reaction (FIG. 6A). […]

[4] = substrate: NCCCC(=O)O; assay: ATP-PPi release assay for ORF27 (substrate range, steady state parameters); format: biochemical, Streptomyces aizunensis; conditions: other: 100 mM HEPES, pH 7.5 at 25° C.
Protocol: (§3) The substrate range of ORF27 was determined by ATP-PPi release assays as previously described (12). Without prior knowledge about the reaction pathways, the ATP-PPi assay served a semi-quantitative method to compare substrate induced acceleration of ATP consumption. For kinetic investigation of ORF27 activity with different substrates, the inorganic pyrophosphate released by enzymatic reaction was measured continuously using the EnzChek Pyrophosphate Assay Kit (Invitrogen). A typical assay contained in a total volume of 150 μL: 5 μM of ORF27, 0-20 mM substrates, 1 mM ATP, 1 mM CoASH and 1 mM Mg(Cl)2 in 100 mM HEPES, pH 7.5. 2-amino-6-mercapto-7-methylpurine ribonucleoside (MESG) substrate, purine nucleoside phosphorylase and inorganic pyrophosphatase were added according to the protocol. Reactions were initiated by the addition of ATP and monitored at 360 nm with SpectraMax M2 (Molecular Devices, Sunnyvale, Calif.). Initial velocities were calculated using the standard curve for inorganic pyrophosphate. For each concentration, control reactions were carried out without enzyme or without ATP. The rates of PPi release were converted to observed rates, and the Michaelis-Menten kinetic parameters were obtained.
as §1
(§4) The sensitivity of the ATP-PPi release assay (5 μM Pi) allowed the initial velocity to be determined within the first 2 min of reaction incubation. During this time period, ATP hydrolysis activity by ORF27 was not observed according to the ATP-PPi assay (ATP hydrolysis was observed over longer period of time though, see discussion below).

[5] = substrate: N=C(N)NCCCC(=O)O; assay: as above; format: biochemical, Streptomyces aizunensis; conditions: other: 100 mM HEPES, pH 7.5 at 25° C.
Protocol: as §3, §1, §4

[6] = substrate: CCCCC(=O)O; assay: as above; format: biochemical, Streptomyces aizunensis; conditions: other: 100 mM HEPES, pH 7.5 at 25° C.
Protocol: as §3, §1, §4

[7] = substrate: N=C(N)NCCCCCC(=O)O; assay: as above; format: biochemical, Streptomyces aizunensis; conditions: other: 100 mM HEPES, pH 7.5 at 25° C.
Protocol: as §3, §1, §4

[8] = substrate: CCC(N)C(=O)O; assay: as above; format: biochemical, Streptomyces aizunensis; conditions: other: 100 mM HEPES, pH 7.5 at 25° C.
Protocol: as §3, §1, §4

[9] = substrate: CCC(C)CCC(=O)O; assay: as above; format: biochemical, Streptomyces aizunensis; conditions: other: 100 mM HEPES, pH 7.5 at 25° C.
Protocol: as §3, §1, §4

[10] = substrate: NCCCCCC(=O)O; assay: as above; format: biochemical, Streptomyces aizunensis; conditions: other: 100 mM HEPES, pH 7.5 at 25° C.
Protocol: as §3, §1, §4

[11] = pH profile of ORF27 catalyzed butyrolactam formation (end-point assay); format: biochemical
Protocol: FIG. 8. pH profile of ORF27 catalyzed butyrolactam formation. A reaction mixture containing 5 μM ORF27, 1 mM GABA, 1 mM ATP, 1 mM CoASH and 1 mM Mg(Cl)2 in 100 mM HEPES (pH 7.5) was incubated at 25° C. for 30 min. The reaction was quenched by equal volume of methanol, and the filtered solution was analyzed by analytical method described above.
as §2, with “Caprolactam, valerolactam and butyrolactam, AMP, ADP and ATP were purchased as standards from Sigma-Aldrich.” left out

Question: For `O=C(O)CCCCC(=O)O` [adipic acid, Adipic acid], which “enzyme activity of ORF27 on the substrate” value (ORF27 [1]) is on record?
Answer: not observed

Question: With `O=C(O)CCCC(=O)O` [glutaric acid, Glutaric acid] as the molecule, how does the “enzyme activity of ORF27 on the substrate” value (ORF27 [1]) read?
Answer: not observed

Question: With `N=C(N)NCCCCCC(=O)O` [6-Guanidinohexanoic acid] as the molecule, how does the solubility [2] read?
Answer: low solubility

Question: With `Nc1ncnc2c1ncn2[C@@H]1O[C@H](COP(=O)(O)OP(=O)(O)O)[C@@H](O)[C@H]1O` [ADP] as the molecule, how does the “rate of lactam formation with ADP relative to the similar reaction with ATP” value (ORF27 [3]) read?
Answer: 20-50%

B1: ORF27 (Streptomyces aizunensis) (protein)
chain: MRPMTAKIFAVDSVRPIDEFEQDALRVADVIRERGVCLGDRVMLKAGNSASYVCVLYALMHIGASIVLVDQQEHKEETRRIALRTGVKVTFVDDETPIDQDADPIHLYELMVATQNRPPMDSALSFDAWGELSDGLIMWTSGSTGSPKGVVKSGGKFLANLRRNAHQVGHRPDDVLMPLLPFAHQYGLSMVLIAWLTRCSLVIAPYRRLDRALRMARDSGTTVIDATPSSYRSILGLVTRKPALRAHLAGTRMFCVGAAPLDAPLVESYVQEFGLPLLDSYGSTELNNIAFATLDNPVSCGRAMEGIGLRIVDEDGREVAAGQPGEIEVDTPDALEGQIAEDGSIIPAPTGWQRTGDLGHLDADGNLYVLGRKFAVHRMGYTLYPELIERKVAAEGCPTRIVPLPDELRGSQLVFFVEDDEQRDAGYWRERLCGLLPAFEQPNKVVVLEQFPLNRNGKPDKKELTRMAAE
Question: Which results are given for B1?
Answer: Km [4]: 17200 µM; kcat [4]: 0.00583 s⁻¹; kcat/Km [4]: 0.338 M⁻¹ s⁻¹; Km [5]: 13 µM; kcat [5]: 0.002 s⁻¹; kcat/Km [5]: 157 M⁻¹ s⁻¹; Km [6]: 52200 µM; kcat [6]: 0.0283 s⁻¹; kcat/Km [6]: 0.543 M⁻¹ s⁻¹; Km [7]: 110 µM; kcat [7]: 0.0055 s⁻¹; kcat/Km [7]: 49 M⁻¹ s⁻¹; Km [8]: 1630 µM; kcat [8]: 0.0006 s⁻¹; kcat/Km [8]: 0.37 M⁻¹ s⁻¹; Km [9]: 12100 µM; kcat [9]: 0.0217 s⁻¹; kcat/Km [9]: 1.8 M⁻¹ s⁻¹; Km [10]: 56 µM; kcat [10]: 0.00283 s⁻¹; kcat/Km [10]: 49.4 M⁻¹ s⁻¹; pH below which the enzyme precipitated and became inactive [11]: below 6.0; pH optimum [11]: 8.0
